Key:
[1] = molecular target: T1, murine NKG2D overexpressed on EL4 cells (EL4-mNKG2D) (mouse, UniProt O54709 1-232); experiment: flow cytometry, 60 ug/mL with four-fold dilutions, EL4-mNKG2D cells, goat anti-mouse PE
T1 construct: whole, on cells; also called EL4-mNKG2D cells
T1 sequence (looked up): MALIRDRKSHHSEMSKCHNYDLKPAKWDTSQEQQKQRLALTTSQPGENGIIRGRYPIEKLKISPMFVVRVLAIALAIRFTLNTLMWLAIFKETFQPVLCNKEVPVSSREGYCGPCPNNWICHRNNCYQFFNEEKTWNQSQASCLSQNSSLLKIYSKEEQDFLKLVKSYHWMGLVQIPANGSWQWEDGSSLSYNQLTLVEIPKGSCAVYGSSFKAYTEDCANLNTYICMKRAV

[2] = molecular target: T2, Tyrp-1 on B16F10 melanoma cells (UniProt P07147 25-537, limits assumed); experiment: flow cytometry, 60 ug/mL with four-fold dilutions, B16F10 tumor cells, goat anti-mouse PE
T2 construct: whole, on cells; B16F10 is a mouse melanoma line; also called Tyrp-1-positive B16F10 melanoma cells

[3] = molecular target: T3, CD33 expressed on MV4-11 human AML cells (human, UniProt P20138 18-364); experiment: flow cytometry on MV4-11 cells
T3 construct: whole, on cells; also called cell-expressed CD33
T3 sequence (P20138 18-364): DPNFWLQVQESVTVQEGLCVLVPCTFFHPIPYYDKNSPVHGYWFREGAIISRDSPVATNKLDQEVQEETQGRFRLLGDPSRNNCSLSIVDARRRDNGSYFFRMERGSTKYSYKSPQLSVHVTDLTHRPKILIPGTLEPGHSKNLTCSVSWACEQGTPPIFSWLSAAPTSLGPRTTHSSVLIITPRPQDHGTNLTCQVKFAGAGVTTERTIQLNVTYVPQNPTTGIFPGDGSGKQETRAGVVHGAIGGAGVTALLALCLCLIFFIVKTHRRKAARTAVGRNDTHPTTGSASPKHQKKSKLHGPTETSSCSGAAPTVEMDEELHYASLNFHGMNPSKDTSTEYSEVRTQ

[4] = molecular target: T3, CD33 expressed on MV4-11 human AML cells; experiment: flow cytometry on MV4-11 cells, MFI fold over background

B1: mcFAE-C26.99 TriNKET (bispecific antibody, mouse IgG2c)
heavy 1: QVQLQQWGAGLLKPSETLSLTCAVYGGSFSGYYWSWIRQPPGKGLEWIGEIDHSGSTNYNPSLKSRVTISVDTSKNQFSLKLSSVTAADTAVYYCARARGPWSFDPWGQGTLVTVSSAKTTAPSVYPLAPVCGGTTGSSVTLGCLVKGYFPEPVTLTWNSGSLSSGVHTFPALLQSGLYTLSSSVTVTSNTWPSQTITCNVAHPASSTKVDKKIEPRVPITQNPCPPLKECPPCAAPDLLGGPSVFIFPPKIKDVLMISLSPMVTCVVVDVSEDDPDVQISWFVNNVEVHTAQTQTHREDYNSTLRVVSALPIQHQDWMSGKEFKCKVNNRALPSPIEKTISKPRGPVRAPQVYVLPPPAEEMTKKEFSLTCMIKGFLPAEIAVDWTSNGRTEQNYKNTATVLDSDGSYFMYSRLRVQKSTWERGSLFACSVVHEGLHNHLTTKTISRSLGK
light 1: DIQMTQSPSTLSASVGDRVTITCRASQSISSWLAWYQQKPGKAPKLLIYKASSLESGVPSRFSGSGSGTEFTLTISSLQPDDFATYYCQQYGSFPITFGGGTKVEIKRADAAPTVSIFPPSSEQLTSGGASVVCFLNNFYPKDINVKWKIDGSERQNGVLNSWTDQDSKDSTYSMSSTLTLTKDEYERHNSYTCEATHKTSTSPIVKSFNRNEC
heavy 2: EVQLQQSGAELVRPGALVKLSCKTSGFNIKDYFLHWVRQRPDQGLEWIGWINPDNGNTVYDPKFQGTASLTADTSSNTVYLQLSGLTSEDTAVYFCTRRDYTYEKAALDYWGQGASVIVSSAKTTAPSVYPLAPVCGGTTGSSVTLGCLVKGYFPEPVTLTWNSGSLSSGVHTFPALLQSGLYTLSSSVTVTSNTWPSQTITCNVAHPASSTKVDKKIEPRVPITQNPCPPLKECPPCAAPDLLGGPSVFIFPPKIKDVLMISLSPMVTCVVVDVSEDDPDVQISWFVNNVEVHTAQTQTHREDYNSTLRVVSALPIQHQDWMSGKEFKCKVNNRALPSPIEKTISKPRGPVRAPQVYVLPPPAEEMTKKEFSLTCMITGFLPAEIAVDWTSNGRTEQNYKNTATVLDSDGSYLMYSKLTVQKSTWERGSLFACSVVHEGLHNHLTTKTISRSLGK
light 2: DIQMSQSPASLSASVGETVTITCRASGNIYNYLAWYQQKQGKSPHLLVYDAKTLADGVPSRFSGSGSGTQYSLKISSLQTEDSGNYYCQHFWSLPFTFGSGTKLEIKRADAAPTVSIFPPSSEQLTSGGASVVCFLNNFYPKDINVKWKIDGSERQNGVLNSWTDQDSKDSTYSMSSTLTLTKDEYERHNSYTCEATHKTSTSPIVKSFNRNEC
notes: Heterodimer of mC26 and TA99 with mouse IgG2c as the Fc; also called murine cFAE-C26.99 TriNKET; TA99 TriNKET
- binding result [1]: binds
- binding result [2]: binds

B2: CD33-TriNKET-C26 (ADI-28226 and a CD33-binding domain) (bispecific antibody, V domains shown)
VH 1: QVQLQQWGAGLLKPSETLSLTCAVYGGSFSGYYWSWIRQPPGKGLEWIGEIDHSGSTNYNPSLKSRVTISVDTSKNQFSLKLSSVTAADTAVYYCARARGPWSFDPWGQGTLVTVSS
VL 1: DIQMTQSPSTLSASVGDRVTITCRASQSISSWLAWYQQKPGKAPKLLIYKASSLESGVPSRFSGSGSGTEFTLTISSLQPDDFATYYCQQYGSFPITFGGGTKVEIK
VH 2: QVQLVQSGAEVKKPGASVKVSCKASGYTFTDYVVHWVRQAPGQGLEWMGYINPYNDGTKYNEKFKGRVTMTRDTSISTAYMELSRLRSDDTAVYYCARDYRYEVYGMDYWGQGTLVTVSS
VL 2: DIVLTQSPASLAVSPGQRATITCTASSSVNYIHWYQQKPGQPPKLLIYDTSKVASGVPARFSGSGSGTDFTLTINPVEANDTANYYCQQWRSYPLTFGQGTKLEIK
notes: also called C26-TriNKET-CD33
- binding result [3]: binds

B3: parental anti-CD33 monoclonal antibody (antibody, V domains shown)
VH: QVQLVQSGAEVKKPGASVKVSCKASGYTFTDYVVHWVRQAPGQGLEWMGYINPYNDGTKYNEKFKGRVTMTRDTSISTAYMELSRLRSDDTAVYYCARDYRYEVYGMDYWGQGTLVTVSS
VL: DIVLTQSPASLAVSPGQRATITCTASSSVNYIHWYQQKPGQPPKLLIYDTSKVASGVPARFSGSGSGTDFTLTINPVEANDTANYYCQQWRSYPLTFGQGTKLEIK
notes: also called parental monoclonal anti-CD33 antibody; parental anti-CD33 antibody
- binding result [4]: binds

Reference: US20240166753A1 (DRAGONFLY THERAPEUTICS, published 2024)
